According to patent publication US8026218 (UNIVERSITY OF ARIZONA, dated 2011):
Read-outs that look alike come from different tables or passages of the source. Bridge positions count the residues as written; N and C are the ends. Square brackets hold non-standard residues; d marks the D form. Ends that are not written are not given here. * marks the point of attachment. Glc = O-glucosyl on Ser side chain (Ser(OGlu)/Ser(OGlc)); NH(3,5-(CF3)2-benzyl) = FC(F)(F)c1cc(CN*)cc(C(F)(F)F)c1; OBzl(3,5-(CF3)2) = FC(F)(F)c1cc(CO*)cc(C(F)(F)F)c1; Dmt = Cc1cc(O)cc(C)c1C[C@H](N)C(=O)O; Nle = CCCC[C@H](N)C(=O)O; NHBn = c1ccc(CN*)cc1

What was measured:
[1] = target: T1, guinea pig NK1 receptor (guinea pig, UniProt P30547 1-407); assay: cell-based or functional assay
T1 sequence (P30547 whole entry): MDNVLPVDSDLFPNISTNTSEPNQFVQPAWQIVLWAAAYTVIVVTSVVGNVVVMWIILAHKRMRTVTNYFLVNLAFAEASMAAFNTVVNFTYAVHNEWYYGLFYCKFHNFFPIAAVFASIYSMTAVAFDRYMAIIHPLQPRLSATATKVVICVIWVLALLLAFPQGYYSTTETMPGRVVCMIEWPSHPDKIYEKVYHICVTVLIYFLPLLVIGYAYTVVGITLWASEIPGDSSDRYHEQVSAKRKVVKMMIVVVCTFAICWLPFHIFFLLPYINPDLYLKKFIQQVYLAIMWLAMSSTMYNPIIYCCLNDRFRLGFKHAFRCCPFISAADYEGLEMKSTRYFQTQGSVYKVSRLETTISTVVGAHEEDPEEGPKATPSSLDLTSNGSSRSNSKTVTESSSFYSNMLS

[2] = target: µ opioid receptor of the guinea pig isolated ileum (guinea pig, UniProt P97266 1-98); assay: cell-based or functional assay
[3] = target: T2, human δ opioid receptor (human, UniProt P41143 1-372); assay: competition vs [3H]DPDPE, hDOR cell membranes
T2 construct: whole, on cells; membrane preparations of the transfected cells were used; also called hDOR; DOR
T2 sequence (P41143 whole entry, stated change not applied): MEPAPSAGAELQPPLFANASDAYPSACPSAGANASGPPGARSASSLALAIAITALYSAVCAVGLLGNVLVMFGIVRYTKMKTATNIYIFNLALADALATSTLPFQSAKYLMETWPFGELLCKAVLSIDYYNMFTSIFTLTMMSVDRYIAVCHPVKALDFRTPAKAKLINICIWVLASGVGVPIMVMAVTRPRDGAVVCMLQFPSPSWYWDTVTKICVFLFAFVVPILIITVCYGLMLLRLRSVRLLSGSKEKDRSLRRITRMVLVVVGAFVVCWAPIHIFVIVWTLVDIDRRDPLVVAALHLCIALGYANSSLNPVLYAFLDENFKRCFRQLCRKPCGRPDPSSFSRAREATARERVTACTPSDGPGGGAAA

[4] = target: T3, human NK1 receptor (human, UniProt P25103 1-407); assay: competition vs [3H]Substance P, hNK1 CHO cell membranes
T3 construct: whole, on cells; membrane preparations of the transfected cells were used; also called hNK1; human neurokinin-1 receptor

[5] = target: T4, rat µ opioid receptor (rat, UniProt P33535 1-398); assay: competition vs [3H]DAMGO, rMOR cell membranes
T4 construct: whole, on cells; membrane preparations of the transfected cells were used; also called rMOR; MOR
T4 sequence (P33535 whole entry): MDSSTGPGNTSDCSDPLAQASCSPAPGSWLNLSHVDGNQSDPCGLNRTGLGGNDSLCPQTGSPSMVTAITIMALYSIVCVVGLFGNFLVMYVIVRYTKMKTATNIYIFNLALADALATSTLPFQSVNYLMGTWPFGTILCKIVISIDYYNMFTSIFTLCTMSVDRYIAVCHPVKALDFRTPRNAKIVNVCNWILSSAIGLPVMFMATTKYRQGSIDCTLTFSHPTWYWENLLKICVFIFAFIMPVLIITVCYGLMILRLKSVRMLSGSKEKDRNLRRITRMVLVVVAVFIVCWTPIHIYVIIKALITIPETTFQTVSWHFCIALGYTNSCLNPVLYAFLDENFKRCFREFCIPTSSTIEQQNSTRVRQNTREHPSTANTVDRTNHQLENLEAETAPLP

[6] = target: T5, rat NK1 receptor (rat, UniProt P14600 1-407); assay: competition vs [3H]Substance P, rNK1 CHO cell membranes
T5 construct: whole, on cells; membrane preparations of the transfected cells were used; also called rNK1; rNK-1
T5 sequence (P14600 whole entry): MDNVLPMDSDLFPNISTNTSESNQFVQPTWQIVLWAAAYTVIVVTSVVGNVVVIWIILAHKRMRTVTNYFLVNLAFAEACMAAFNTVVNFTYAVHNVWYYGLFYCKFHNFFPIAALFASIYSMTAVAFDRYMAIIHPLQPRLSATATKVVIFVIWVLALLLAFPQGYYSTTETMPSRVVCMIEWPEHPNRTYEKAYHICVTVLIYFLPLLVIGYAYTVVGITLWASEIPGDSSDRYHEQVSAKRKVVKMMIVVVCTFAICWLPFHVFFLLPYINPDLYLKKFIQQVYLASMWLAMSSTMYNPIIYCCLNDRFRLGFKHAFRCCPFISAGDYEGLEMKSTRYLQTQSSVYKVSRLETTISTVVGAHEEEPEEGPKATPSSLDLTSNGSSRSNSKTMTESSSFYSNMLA

[7] = target: T3, human NK1 receptor; assay: competition vs [3H]Substance P, hNK1 CHO cell membranes; remark: listed apart in the source
[8] = target: T5, rat NK1 receptor; assay: competition vs [3H]Substance P, rNK1 CHO cell membranes; remark: listed apart in the source
[9] = target: T2, human δ opioid receptor; assay: cell-based or functional assay
[10] = target: T4, rat µ opioid receptor; assay: cell-based or functional assay
[11] = target: T4, rat µ opioid receptor; assay: ratio of the Ki at rMOR to the Ki at hDOR
[12] = target: T4, rat µ opioid receptor; assay: competition vs [3H]DAMGO, rMOR cell membranes; remark: listed apart in the source
[13] = target: T1, guinea pig NK1 receptor; assay: cell-based or functional assay; remark: listed apart in the source
[14] = target: T2, human δ opioid receptor; assay: competition vs [3H]DPDPE, hDOR cell membranes; remark: listed apart in the source
[15] = target: T3, human NK1 receptor; assay: competition vs [3H]Substance P, hNK1 CHO cell membranes; remark: listed apart in the source
[16] = target: T5, rat NK1 receptor; assay: competition vs [3H]Substance P, rNK1 CHO cell membranes; remark: listed apart in the source
[17] = target: T2, human δ opioid receptor; assay: competition vs [3H]DPDPE, hDOR cell membranes; remark: listed apart in the source
[18] = target: T3, human NK1 receptor; assay: competition vs [3H]Substance P, hNK1 CHO cell membranes; remark: listed apart in the source
[19] = target: T5, rat NK1 receptor; assay: competition vs [3H]Substance P, rNK1 CHO cell membranes; remark: listed apart in the source
[20] = target: T6, human δ opioid receptor (human, UniProt P41143 1-372); assay: competition vs [3H]DPDPE, hDOR membranes
T6 construct: whole, on cells; Assayed as membrane preparations of transfected cells; also called hDOR; DOR
T6 sequence (P41143 whole entry, stated change not applied): as the sequence (P41143 whole entry, stated change not applied) above

[21] = target: T7, rat µ opioid receptor (rat, UniProt P33535 1-398); assay: competition vs [3H]DAMGO, membranes of rMOR-transfected HN9.10 cells
T7 construct: whole, on cells; Assayed as membrane preparations of transfected cells; also called rMOR; MOR
T7 sequence (P33535 whole entry): as the sequence (P33535 whole entry) above

[22] = target: T8, guinea pig NK1 receptor (guinea pig, UniProt P30547 1-407); assay: cell-based or functional assay; remark: listed apart in the source
T8 sequence (P30547 whole entry): as the sequence (P30547 whole entry) above

[23] = target: µ opioid receptor of the guinea pig isolated ileum (guinea pig); assay: cell-based or functional assay
[24] = target: T9, rat NK1 receptor (rat, UniProt P14600 1-407); assay: competition vs [3H]substance P, membranes of rNK1-transfected CHO cells
T9 construct: whole, on cells; Assayed as membrane preparations of transfected CHO cells; also called rNK1; rNK-1
T9 sequence (P14600 whole entry): as the sequence (P14600 whole entry) above

[25] = target: T8, guinea pig NK1 receptor; assay: cell-based or functional assay; remark: listed apart in the source
[26] = target: T7, rat µ opioid receptor; assay: cell-based or functional assay; remark: listed apart in the source
[27] = target: T6, human δ opioid receptor; assay: cell-based or functional assay; remark: listed apart in the source
[28] = target: T6, human δ opioid receptor; assay: ratio of Ki at rMOR to Ki at hDOR
[29] = target: T9, rat NK1 receptor; assay: radioligand competition vs [3H]substance P; reference value of L-732,138 (around 460 nM) is a reported one
[30] = target: T6, human δ opioid receptor; assay: competition vs [3H]DPDPE, membranes of hDOR-transfected HN9.10 cells
[31] = target: T2, human δ opioid receptor; assay: cell-based or functional assay; remark: listed apart in the source
[32] = target: T4, rat µ opioid receptor; assay: cell-based or functional assay; remark: listed apart in the source
[33] = target: T2, human δ opioid receptor; assay: competition vs [3H]DPDPE, hDOR cell membranes; remark: listed apart in the source
[34] = target: T3, human NK1 receptor; assay: competition vs [3H]Substance P, hNK1 CHO cell membranes; remark: listed apart in the source
[35] = target: T4, rat µ opioid receptor; assay: competition vs [3H]DAMGO, rMOR cell membranes; remark: listed apart in the source

T3 sequence (P25103 whole entry): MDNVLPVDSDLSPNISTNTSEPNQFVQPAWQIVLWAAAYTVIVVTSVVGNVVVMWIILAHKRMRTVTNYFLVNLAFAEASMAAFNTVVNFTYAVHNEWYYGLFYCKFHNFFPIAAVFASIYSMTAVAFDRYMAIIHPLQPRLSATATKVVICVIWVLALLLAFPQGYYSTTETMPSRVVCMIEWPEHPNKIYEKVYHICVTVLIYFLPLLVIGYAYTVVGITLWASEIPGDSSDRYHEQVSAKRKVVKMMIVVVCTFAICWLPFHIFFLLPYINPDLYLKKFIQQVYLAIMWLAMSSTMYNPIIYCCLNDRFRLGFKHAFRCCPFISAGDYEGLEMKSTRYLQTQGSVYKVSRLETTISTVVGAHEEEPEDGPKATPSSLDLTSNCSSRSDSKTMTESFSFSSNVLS
µ opioid receptor of the guinea pig isolated ileum, sequence (P97266 whole entry): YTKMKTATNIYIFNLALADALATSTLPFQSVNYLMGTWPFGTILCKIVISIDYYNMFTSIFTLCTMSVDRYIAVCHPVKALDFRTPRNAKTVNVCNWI

[Dmt][dA]GFMPLW-NHBn (also called TY034) [DmtDAlaGlyPheMetProLeuTrpNHBn]
GPI/LMMP Substance P antagonist Ke [1]: 36.9 nM
GPI/LMMP IC50 [2]: 11.4 nM
Ki [3]: 0.1 nM
Ki [4]: 2.4 nM
Ki [5]: 0.14 nM
Ki [6]: 317 nM

Y[dA]GF[Nle]PLS(Glc)W-{NH(3,5-(CF3)2-benzyl)} (also called TY055) [TyrDAlaGlyPheNleProLeuSer(OGlu)TrpNHBn(CF3)2]
Ki [7]: 0.052 nM
Ki [8]: 34 nM

B1: Tyr[DCysGlyPheNleProDCys]TrpNHBn(CF3)2 (peptide)
peptide: Y[dC]GF[Nle]P[dC]W-{NH(3,5-(CF3)2-benzyl)}
modifications: disulfide 2-7
notes: cyclic; also called TY038; [D-Cys2, D-Cys7]TY027
[35S]GTPγS binding EC50 [9]: 51 nM
[35S]GTPγS binding Emax [9]: 87%
[35S]GTPγS binding LogEC50 [9]: -7.3
[35S]GTPγS binding EC50 [10]: 22 nM
[35S]GTPγS binding Emax [10]: 12%
[35S]GTPγS binding LogEC50 [10]: -7.7
Ki(µ)/Ki(δ) [11]: 2.9
Ki [12]: 160 nM
LogIC50 [12]: -8.8
GPI Substance P antagonist Ke [13]: 12 nM
Ki [14]: 56 nM
LogIC50 [14]: -6.9
Ki [15]: 0.25 nM
LogIC50 [15]: -9.3
Ki [16]: 7.1 nM
LogIC50 [16]: -7.7

[Dmt][dA]GFMPLW-{NH(3,5-(CF3)2-benzyl)} (also called TY032) [DmtDAlaGlyPheMetProLeuTrpNHBn(CF3)2]
GPI/LMMP Substance P antagonist Ke [1]: 7.5 nM
GPI/LMMP IC50 [2]: 18.6 nM
Ki [17]: 0.12 nM
Ki [3]: 0.12 nM
Ki [4]: 0.0079 nM
Ki [18]: 0.0079 nM
Ki [19]: 2.3 nM
Ki [6]: 2.3 nM

Y[dC]GF[Nle]P[dC]W-{NH(3,5-(CF3)2-benzyl)} (disulfide 2-7, also called TY038; TY38)
fold lower affinity than TY027 [20]: 85 fold

H-Y[dA]GFFPLW-{OBzl(3,5-(CF3)2)} (also: TFA salt, TFA salt; also called TY003) [H-Tyr-D-Ala-Gly-Phe-Phe-Pro-Leu-Trp-O-3,5-Bzl(CF3)2]
Ki [21]: 28.3 nM
LogIC50 [21]: -7.22
Substance P GPI agonist (A50), contraction relative to KCl [22]: 0 % at 1 µM
Substance P GPI antagonist Ke [22]: 14.4 nM
GPI (µ) opioid agonist, % at 1 µM [23]: 7 % at 1 µM
IC50 [24]: 19.3 nM
LogIC50 [24]: -7.72
fold improvement of Ke in GPI tissue over L-732,138 [25]: 12 fold
[35S]GTP-γ-S binding EC50 [26]: 58.7 nM
[35S]GTP-γ-S binding Emax [26]: 41%
[35S]GTP-γ-S binding LogEC50 [26]: -7.23
[35S]GTP-γ-S binding EC50 [27]: 20.8 nM
[35S]GTP-γ-S binding Emax [27]: 39%
[35S]GTP-γ-S binding LogEC50 [27]: -7.68
Ki(µ)/Ki(δ) [28]: 1.9
fold improvement of rNK1 affinity over L-732,138 [29]: 25 fold
Ki [30]: 14.6 nM
LogIC50 [30]: -7.5

B2: Tyr[DPenGlyPhePen]ProLeuTrpNHBn(CF3)2 (peptide)
peptide: YXGFXPLW
modifications: D-Pen at 2 and Pen at 5 (written X); disulfide 2-5; C-terminal NH-3,5-Bzl(CF3)2 amide
notes: cyclic; also called TY046
GTP binding EC50 [31]: 17.3 nM
GTP binding EC50 [32]: 28.8 nM
Ki [33]: 1.7 nM
Ki [34]: 0.0053 nM
Ki [35]: 2330 nM
